{"source": "ChEMBL document CHEMBL2073889", "about": "“ATP-dependent transport of beta-estradiol 17-(beta-D-glucuronide) in rat canalicular membrane vesicles” (Am J Physiol, 1996)", "proteins": {"B1": {"name": "ATP-binding cassette sub-family C member 2 (Rattus norvegicus) (protein)", "chain": "MDKFCNSTFWDLSLLESPEADLPLCFEQTVLVWIPLGFLWLLAPWQLYSVYRSRTKRSSITKFYLAKQVFVVFLLILAAIDLSLALTEDTGQATVPPVRYTNPILYLCTWLLVLAVQHSRQWCVRKNSWFLSLFWILSVLCGVFQFQTLIRALLKDSKSNMAYSYLFFVSYGFQIVLLILTAFSGPSDSTQTPSVTASFLSSITFSWYDRTVLKGYKHPLTLEDVWDIDEGFKTRSVTSKFEAAMTKDLQKARQAFQRRLQKSQRKPEATLHGLNKKQSQSQDVLVLEEAKKKSEKTTKDYPKSWLIKSLFKTFHVVILKSFILKLIHDLLVFLNPQLLKLLIGFVKSSNSYVWFGYICAILMFAVTLIQSFCLQSYFQHCFVLGMCVRTTVMSSIYKKALTLSNLARKQYTIGETVNLMSVDSQKLMDATNYMQLVWSSVIQITLSIFFLWRELGPSILAGVGVMVLLIPVNGVLATKIRNIQVQNMKNKDKRLKIMNEILSGIKILKYFAWEPSFQEQVQGIRKKELKNLLRFGQLQSLLIFILQITPILVSVVTFSVYVLVDSANVLNAEKAFTSITLFNILRFPLSMLPMVTSSILQASVSVDRLERYLGGDDLDTSAIRRVSNFDKAVKFSEASFTWDPDLEATIQDVNLDIKPGQLVAVVGTVGSGKSSLVSAMLGEMENVHGHITIQGSTAYVPQQSWIQNGTIKDNILFGSEYNEKKYQQVLKACALLPDLEILPGGDMAEIGEKGINLSGGQKQRVSLARAAYQDADIYILDDPLSAVDAHVGKHIFNKVVGPNGLLAGKTRIFVTHGIHFLPQVDEIVVLGKGTILEKGSYRDLLDKKGVFARNWKTFMKHSGPEGEATVNNDSEAEDDDDGLIPTMEEIPEDAASLAMRRENSLRRTLSRSSRSSSRRGKSLKNSLKIKNVNVLKEKEKEVEGQKLIKKEFVETGKVKFSIYLKYLQAVGWWSILFIILFYGLNNVAFIGSNLWLSAWTSDSDNLNGTNNSSSHRDMRIGVFGALGLAQGICLLISTLWSIYACRNASKALHGQLLTNILRAPMRFFDTTPTGRIVNRFSGDISTVDDLLPQTLRSWMMCFFGIAGTLVMICMATPVFAIIIIPLSILYISVQVFYVATSRQLRRLDSVTKSPIYSHFSETVTGLPIIRAFEHQQRFLAWNEKQIDINQKCVFSWITSNRWLAIRLELVGNLVVFCSALLLVIYRKTLTGDVVGFVLSNALNITQTLNWLVRMTSEAETNIVAVERISEYINVENEAPWVTDKRPPADWPRHGEIQFNNYQVRYRPELDLVLKGITCNIKSGEKVGVVGRTGAGKSSLTNCLFRILESAGGQIIIDGIDVASIGLHDLRERLTIIPQDPILFSGSLRMNLDPFNKYSDEEVWRALELAHLRSFVSGLQLGLLSEVTEGGDNLSIGQRQLLCLGRAVLRKSKILVLDEATAAVDLETDSLIQTTIRKEFSQCTVITIAHRLHTIMDSDKIMVLDNGKIVEYGSPEELLSNRGSFYLMAKEAGIENVNHTEL"}}, "substrate": "C[C@]12CC[C@@H]3c4ccc(O)cc4CC[C@H]3[C@@H]1CC[C@@H]2O[C@@H]1O[C@H](C(=O)O)[C@@H](O)[C@H](O)[C@H]1O", "experiment": "TP_TRANSPORTER: uptake in bile canalicular membrane vesicles from SD rat", "assay_type": "functional, cell membranes, Sprague-Dawley, Bile canalicular membrane vesicle", "data": [{"protein": "B1", "values": [{"measurement": "Km", "result": 75, "unit": "µM"}]}]}
